Measurements as given in patent US20200308575A1 (TWIST BIOSCIENCE, published 2020).
Changes are numbered by the printed parent chain.

B1: PD1-1 (antibody, V domains shown)
VH: QVQLVQSGAEVKKPGASVKVSCKASGYTFSHYGISWVRQAPGQGLEWMGWVSAYSGNTRYAQKLQGRVTMTTDTSTSTAYMELRSLRSDDTAVYYCARDATYSSGSGYWGQGTLVTVSS
VL: SYELMQPPSVSVSPGQTARITCSGDALPTQYAYWYQQKPGQAPVLVIYQDNERPSGIPERFSGSSSGTTVTLTISGVQAEDEADYYCQSADNSITYRVFGGGTKLTVL
notes: IgG in the assay
B2: PD1-2 (antibody, V domains shown)
VH: B1 VH with T28S, H31N, R59N, T101D, S103A
VL: B1 VL with A26E, T29N, Q49K, N51T, E52Q
notes: IgG in the assay
B3: PD1-7 (antibody, V domains shown)
VH: B1 VH with S30T, S35T, V51I, N57S, R59N, T101D, S104I
VL: B1 VL with T29N, Y33F, Q49K
notes: IgG in the assay
B4: PD1-8 (antibody, V domains shown)
VH: B1 VH with V51I, A53P, R59K, A100N, T101D
VL: B1 VL with A26E, T29K, Q49K, P54A
notes: IgG in the assay
B5: PD1-23 (antibody, V domains shown)
VH: B1 VH with T28P, S30T, H31S, V51I, S55N, R59N, A100V, T101D
VL: B1 VL with T29K, Q49K, N51T
notes: IgG in the assay
B6: PD1-4 (antibody, V domains shown)
VH: B1 VH with H31T, Y32S, V51I, S55N, R59N, A100F, T101D
VL: B1 VL with T29K, Q49K, N51T
notes: IgG in the assay
B7: PD1-10 (antibody, V domains shown)
VH: B1 VH with T28R, S30T, H31S, V51I, S55N, R59N, T101D, S103A
VL: B1 VL with T29K, Q49K, N51T
notes: IgG in the assay
B8: PD1-12 (antibody, V domains shown)
VH: B1 VH with S30N, H31T, I34V, V51I, A100F, T101D
VL: B1 VL with T29K, Q49K, N51T
notes: IgG in the assay
B9: PD1-14 (antibody, V domains shown)
VH: B1 VH with T28P, S30T, H31N, V51T, R59N, A100F, T101D
VL: B1 VL with T29K, Q49K, N51T, P54R
notes: IgG in the assay
B10: PD1-17 (antibody, V domains shown)
VH: B1 VH with H31K, V51I, N57H, R59D, A100F, T101D
VL: B1 VL with T29E, Q49K, N51T, P54S
notes: IgG in the assay
B11: PD1-18 (antibody, V domains shown)
VH: B1 VH with S30N, H31N, V51I, N57H, R59D, A100W, T101D
VL: B1 VL with P28S, T29N, A32G, Q49K, P54A
notes: IgG in the assay
B12: PD1-25 (antibody, V domains shown)
VH: B1 VH with T28S, S30T, H31R, V51I, A53P, R59K, T101D, S103G
VL: B1 VL with T29D, Q49K, N51Y
notes: IgG in the assay
B13: PD1-27 (antibody, V domains shown)
VH: B1 VH with T28P, S30T, H31N, S35T, V51I, S55N, R59N, A100W, T101D
VL: B1 VL with A26I, T29K, Q49K, P54A
notes: IgG in the assay
B14: PD1-36 (antibody, V domains shown)
VH: B1 VH with H31S, I34V, V51I, N57S, R59N, T101V
VL: B1 VL with T29N, Y33H, Q49K, N51T, E52Q
notes: IgG in the assay
B15: PD1-42 (antibody, V domains shown)
VH: B1 VH with S30N, H31N, Y32F, V51I, S55N, R59D, A100M, T101D
VL: B1 VL with P28S, T29N, Q49K, N51T, R53T
notes: IgG in the assay
B16: PD1-11 (antibody, V domains shown)
VH: B1 VH with H31N, I34F, V51I, A53P, R59K, T101D, S104I
VL: B1 VL with T29R, Y33H, Q49K, E52V, N92T, I94T, T95I
notes: IgG in the assay
B17: PD1-43 (antibody, V domains shown)
VH: B1 VH with H31N, V51I, R59K, T101D, S103A
VL: B1 VL with T29R, Y33H, Q49K, N92T, I94T, T95I
notes: IgG in the assay
B18: PD1-48 (antibody, V domains shown)
VH: EVQLVESGGGLVQPGRSLRLSCAASGFTFDDYALHWVRQAPGKDLEWVSGISWNSGSQGYADSVKGRFTISRDNAKNSLYLQMNSLRAEDTALYYCVREKGPGLTGSTADYYGLDAWGQGTMVTVSS
B19: PD1-30 (antibody, V domains shown)
VH: B1 VH with S30N, H31N, I34V, R59N, T101D, S103A
VL: B1 VL with P28S, T29N, A32T, Q49K, N51K, E52K
notes: IgG in the assay
B20: PD1-50 (antibody, V domains shown)
VH: B18 VH with L34F, S55A
B21: PD1-21 (antibody, V domains shown)
VH: B18 VH with L34M, S55G, Q58M, D62A, A116V
B22: PD1-32 (antibody, V domains shown)
VH: B18 VH with L34M, Q58M
B23: PD1-20 (antibody, V domains shown)
VH: B18 VH with L34M, S55G, Q58M, A116V
B24: PD1-22 (antibody, V domains shown)
VH: B18 VH with L34M, S55G, Q58M, D62A
B25: PD1-24 (antibody, V domains shown)
VH: B18 VH with L34M, Q58M, D62A
B26: PD1-49 (antibody, V domains shown)
VH: B18 VH with L34F
B27: PD1-38 (antibody, V domains shown)
VH: B18 VH with S55G, Q58M
B28: PD1-44 (antibody, V domains shown)
VH: B18 VH with Q58Y
B29: PD1-39 (antibody, V domains shown)
VH: B18 VH with S55G, Q58Y
B30: PD1-45 (antibody, V domains shown)
VH: B18 VH with S55A

These binders were tested against T1, program cell death protein 1 (PD-1) (UniProt Q15116 25-167, limits assumed) (assay: cell-based or functional assay).
T1 sequence (Q15116 25-167 limits assumed): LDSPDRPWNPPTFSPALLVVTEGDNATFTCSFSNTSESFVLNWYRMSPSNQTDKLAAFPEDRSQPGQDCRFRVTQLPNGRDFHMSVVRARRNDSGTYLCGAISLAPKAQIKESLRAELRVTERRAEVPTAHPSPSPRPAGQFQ
For B1, the “Bmax (RU) (PD-1/PD-L1 blockade assay)” value was 693 RU and the “IC50 (PD-1/PD-L1 blockade assay)” value was 0.434 nM. In the case of B2, the “Bmax (RU) (PD-1/PD-L1 blockade assay)” value is reported as 661 RU and the “IC50 (PD-1/PD-L1 blockade assay)” value is reported as 0.848 nM. B3 was tested, and the “Bmax (RU) (PD-1/PD-L1 blockade assay)” value was 642 RU and the “IC50 (PD-1/PD-L1 blockade assay)” value was 0.896 nM. For B4, the “Bmax (RU) (PD-1/PD-L1 blockade assay)” value was 436 RU and the “IC50 (PD-1/PD-L1 blockade assay)” value was 1.97 nM.

What follows are binders tested against T1, program cell death protein 1 (PD-1) (assay: SPR (Carterra LSA), IgG, monovalent affinity).
B1 showed a Kd of 4.52 nM.

Target: T1, program cell death protein 1 (PD-1)
Assay: SPR (Carterra LSA), IgG, monovalent affinity
Remark: another data set of the same source
With B5 the Kd was 69.2 nM. B1 showed a Kd of 4.5 nM. B2 showed a Kd of 9.8 nM. For B6, the Kd was 31.4 nM. With B3 the Kd was 10.5 nM. B4 showed a Kd of 78.1 nM. B7 gave a Kd of 47.4 nM. With B8 the Kd was 53.5 nM. Binder B9 has a Kd of 45.9 nM. Work on B10 yielded a Kd of 60.1 nM. B11 showed a Kd of 68.4 nM. Work on B12 yielded a Kd of 76 nM. Work on B13 yielded a Kd of 88.6 nM. Work on B14 yielded a Kd of 84.9 nM. B15 was tested, and the Kd was 53.6 nM. B16 was tested, and the Kd was 48.1 nM. B17 was tested, and the Kd was 54.4 nM. B18 showed a Kd of 64.3 nM. In the case of B19, the Kd is reported as 68.8 nM. With B20 the Kd was 87.5 nM. Binder B21 has a Kd of 92 nM. B22 gave a Kd of 92.2 nM. B23 gave a Kd of 109 nM. In the case of B24, the Kd is reported as 132 nM. In the case of B25, the Kd is reported as 190 nM. Work on B26 yielded a Kd of 201 nM. With B27 the Kd was 204 nM. In the case of B28, the Kd is reported as 226 nM. With B29 the Kd was 240 nM. B30 showed a Kd of 243 nM.
